Data as given in the supplement of paper PMC10567573.

B1: INTS3 (parent)
chain: FSDDEEDLNSKGKKREFRFHPIKE

Variants of: B1
Test: protein stability index of a GFP-peptide fusion (GPS, HEK-293T) (PSI 1-6); higher = more stable
Conditions: c terminus: a fixed tail appended
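Further: lentivirally expressed fusions sorted by FACS into six bins by GFP to DsRed ratio, PSI derived from sequencing read proportions per bin multiplied by bin number.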

Variant | protein stability index
FSDDEEDLNSKGKKREFRFFPIKE [H20F] | 3.94
FSDDEEDLNSKGKKREFRFQPIKE [H20Q] | 4.44
FSDDEEDLNSKGKKREFRFLPIKE [H20L] | 5.1
FSDDEEDLNSKGKKREFRFYPIKE [H20Y] | 4.51
FSDDEEDLNSKGKKREFRFDPIKE [H20D] | 5.39
FSDDEEDLNSKGKKREFRFRPIKE [H20R] | 4.24
FSDDEEDLNSKGKKREFRFSPIKE [H20S] | 5.18
FSDDEEDLNSKGKKREFRFPPIKE [H20P] | 4.86
FSDDEEDLNSKGKKREFRFVPIKE [H20V] | 3.92
FSDDEEDLNSKGKKREFRFNPIKE [H20N] | 4.69
FSDDEEDLNSKGKKREFRFIPIKE [H20I] | 4.59
FSDDEEDLNSKGKKREFRFHFIKE [P21F] | 3.58
FSDDEEDLNSKGKKREFRFHAIKE [P21A] | 3.98
FSDDEEDLNSKGKKREFRFHCIKE [P21C] | 3.28
FSDDEEDLNSKGKKREFRFHWIKE [P21W] | 2.53
FSDDEEDLNSKGKKREFRFHGIKE [P21G] | 4.16
FSDDEEDLNSKGKKREFRFHDIKE [P21D] | 3.76
FSDDEEDLNSKGKKREFRFHHIKE [P21H] | 4.01
FSDDEEDLNSKGKKREFRFHIIKE [P21I] | 3.7
FSDDEEDLNSKGKKREFRFHLIKE [P21L] | 4.25
FSDDEEDLNSKGKKREFRFHYIKE [P21Y] | 3.73
FSDDEEDLNSKGKKREFRFHRIKE [P21R] | 4.19
FSDDEEDLNSKGKKREFRFHVIKE [P21V] | 3.88
FSDDEEDLNSKGKKREFRFHKIKE [P21K] | 4.55

Variant | protein stability index
FSDDEEDLNSKGKKREFRFHSIKE [P21S] | 3.88
FSDDEEDLNSKGKKREFRFHTIKE [P21T] | 4.43
FSDDEEDLNSKGKKREFRFHEIKE [P21E] | 4
FSDDEEDLNSKGKKREFRFHQIKE [P21Q] | 3.44
FSDDEEDLNSKGKKREFRFHMIKE [P21M] | 3.32
FSDDEEDLNSKGKKREFRFHNIKE [P21N] | 4.11
FSDDEEDLNSKGKKREFRFHPISE [K23S] | 3.19
FSDDEEDLNSKGKKREFRFHPILE [K23L] | 2.95
FSDDEEDLNSKGKKREFRFHPICE [K23C] | 3.43
FSDDEEDLNSKGKKREFRFHPIQE [K23Q] | 3.18
FSDDEEDLNSKGKKREFRFHPIYE [K23Y] | 2.91
FSDDEEDLNSKGKKREFRFHPIDE [K23D] | 4.1
FSDDEEDLNSKGKKREFRFHPIVE [K23V] | 3.06
FSDDEEDLNSKGKKREFRFHPITE [K23T] | 3.52
FSDDEEDLNSKGKKREFRFHPIWE [K23W] | 2.75
FSDDEEDLNSKGKKREFRFHPIEE [K23E] | 3.64
FSDDEEDLNSKGKKREFRFHPINE [K23N] | 3.18
FSDDEEDLNSKGKKREFRFHPIFE [K23F] | 3.4
FSDDEEDLNSKGKKREFRFHPIME [K23M] | 3.5
FSDDEEDLNSKGKKREFRFHPIPE [K23P] | 3.06
FSDDEEDLNSKGKKREFRFHPIRE [K23R] | 2.68
FSDDEEDLNSKGKKREFRFHPIIE [K23I] | 2.93
FSDDEEDLNSKGKKREFRFHPIAE [K23A] | 3.81
FSDDEEDLNSKGKKREFRFHPIHE [K23H] | 3.34

Variant | protein stability index
FSDDEEDLNSKGKKREFRFHPIGE [K23G] | 3.19
FSDDEEDLNSKGKKREFRFHPDKE [I22D] | 3.98
FSDDEEDLNSKGKKREFRFHPSKE [I22S] | 2.63
FSDDEEDLNSKGKKREFRFHPWKE [I22W] | 2.33
FSDDEEDLNSKGKKREFRFHPCKE [I22C] | 2.48
FSDDEEDLNSKGKKREFRFHPRKE [I22R] | 3
FSDDEEDLNSKGKKREFRFHPFKE [I22F] | 2.12
FSDDEEDLNSKGKKREFRFHPNKE [I22N] | 2.88
FSDDEEDLNSKGKKREFRFHPGKE [I22G] | 2.98
FSDDEEDLNSKGKKREFRFHPTKE [I22T] | 3.29
FSDDEEDLNSKGKKREFRFHPEKE [I22E] | 3.89
FSDDEEDLNSKGKKREFRFHPKKE [I22K] | 2.81
FSDDEEDLNSKGKKREFRFHPQKE [I22Q] | 3.32
FSDDEEDLNSKGKKREFRFHPMKE [I22M] | 3.2
FSDDEEDLNSKGKKREFRFHPAKE [I22A] | 2.88
FSDDEEDLNSKGKKREFRFHPYKE [I22Y] | 2.48
FSDDEEDLNSKGKKREFRFHPPKE [I22P] | 3.25
FSDDEEDLNSKGKKREFRFHPVKE [I22V] | 3.07
FSDDEEDLNSKGKKREFRFHPLKE [I22L] | 3.19
FSDDEEDLNSKGKKREFRFHPHKE [I22H] | 2.91
FSDDEEDLNSKGKKREFRFHPIKD [E24D] | 3.07
FSDDEEDLNSKGKKREFRFHPIKN [E24N] | 2.69
FSDDEEDLNSKGKKREFRFHPIKL [E24L] | 2.14
FSDDEEDLNSKGKKREFRFHPIKA [E24A] | 2.2

Variant | protein stability index
FSDDEEDLNSKGKKREFRFHPIKI [E24I] | 2.06
FSDDEEDLNSKGKKREFRFHPIKT [E24T] | 1.81
FSDDEEDLNSKGKKREFRFHPIKP [E24P] | 1.76
FSDDEEDLNSKGKKREFRFHPIKG [E24G] | 2.17
FSDDEEDLNSKGKKREFRFHPIKW [E24W] | 2.45
FSDDEEDLNSKGKKREFRFHPIKQ [E24Q] | 2.35
FSDDEEDLNSKGKKREFRFHPIKF [E24F] | 1.91
FSDDEEDLNSKGKKREFRFHPIKY [E24Y] | 2.72
FSDDEEDLNSKGKKREFRFHPIKK [E24K] | 2.14
FSDDEEDLNSKGKKREFRFHPIKR [E24R] | 2.31
FSDDEEDLNSKGKKREFRFHPIKH [E24H] | 2.2
FSDDEEDLNSKGKKREFRFHPIKM [E24M] | 1.8
FSDDEEDLNSKGKKREFRFHPIKC [E24C] | 2.18
FSDDEEDLNSKGKKREFRFHPIKV [E24V] | 2.07
FSDDEEDLNSKGKKREFRFHPIKS [E24S] | 2.11
FSDDEEDLNSKGKKREFRTHPIKE [F19T] | 5.06
FSDDEEDLNSKGKKREFRRHPIKE [F19R] | 5.29
FSDDEEDLNSKGKKREFRQHPIKE [F19Q] | 5.14
FSDDEEDLNSKGKKREFRYHPIKE [F19Y] | 3.49
FSDDEEDLNSKGKKREFRVHPIKE [F19V] | 5.1
FSDDEEDLNSKGKKREFRWHPIKE [F19W] | 3.72
FSDDEEDLNSKGKKREFRSHPIKE [F19S] | 5.6
